In patent US6680176B2, “Identification of candidate ligands which modulate antigen presenting cells” (The United States of America, as represented by the …, priority 1999, dated 2004):

Test system: CD8 killer T cells
Experiment: Replacement of T help by soluble factors in CD4 depleted anti-H-Y killer cultures (JAM Test)
Assay type: cell-based, mouse
Conditions: CD4 depleted primed B6 female spleen cells, male stimulators
From the text: Two weeks to 1 year after in vivo priming, spleens were removed from the responders and depleted for CD4 T cells using the Midi MACs system (Miltenyi Biotec, Germany) with MACS magnetic beads conjugated to the anti-mouse CD4 monoclonal antibody, GK1.5. By FACS analysis with the non-competing anti-CD4 antibody RM4-4 (Pharmingen, San Diego, Calif.), the depleted populations routinely contained less than 0.2% CD4 cells.
Two weeks or later after the last in vivo immunization, 4×10^6 spleen cells were restimulated in 2 ml cultures with 2×10^6 irradiated B6 male spleen cells or 1.5×10^5 of the various populations of dendritic cells, with or with out an exogenous source of mouse IL-2, (10% Rat Con A supernatant, from which the ConA has been removed, Collaborative Biomedical Products, Bedford Mass.). Six days later the cultures were tested for their ability to kill male and female targets using the JAM Test. (55).

B1: IL-12: cytokine IL-12 added to the cultures (protein, UniProt P43431 23-215; P43432 23-335, looked up)
Interleukin-12 subunit alpha: RVIPVSGPARCLSQSRNLLKTTDDMVKTAREKLKHYSCTAEDIDHEDITRDQTSTLKTCLPLELHKNESCLATRETSSTTRGSCLPPQKTSLMMTLCLGSIYEDLKMYQTEFQAINAALQNHNHQQIILDKGMLVAIDELMQSLNHNGETLRQKPPVGEADPYRVKMKLCILLHAFSTRVVTINRVMGYLSSA
Interleukin-12 subunit beta: MWELEKDVYVVEVDWTPDAPGETVNLTCDTPEEDDITWTSDQRHGVIGSGKTLTITVKEFLDAGQYTCHKGGETLSHSHLLLHKKENGIWSTEILKNFKNKTFLKCEAPNYSGRFTCSWLVQRNMDLKFNIKSSSSSPDSRAVTCGMASLSAEKVTLDQRDYEKYSVSCQEDVTCPTAEETLPIELALEARQQNKYENYSTSFFIRDIIKPDPPKNLQMKPLKNSQVEVSWEYPDSWSTPHSYFSLKFFVRIQRKKEKMKETEEGCNQKGAFLVEKTSTEVQCKGGNVCVQAQDRYYNSSCSKWACVPCRVRS
  restoration of killer response in the absence of CD4 helpers by addition to the culture: did not replace the activity of helpers
